Data reported in patent USRE46585 (LABORATOIRE FRANCAIS DU FRACTIONNEMENT ET DES …, dated 2017).

Tests used:
FcRn-p3 fusion protein [1] = molecular target: T1, FcRn-p3 fusion protein (human, UniProt P55899 24-297; P61769 21-119); assay: phage ELISA pH6
T1 construct: baculovirus expressed; coated on ELISA wells; not shown: amino terminal part of bacteriophage p3 protein and CVDE protein

FcRn-p3 fusion protein [2] = molecular target: T1, FcRn-p3 fusion protein; assay: phage ELISA pH6 (est.)

T1 sequence (P55899 24-297, chain 1 of 2): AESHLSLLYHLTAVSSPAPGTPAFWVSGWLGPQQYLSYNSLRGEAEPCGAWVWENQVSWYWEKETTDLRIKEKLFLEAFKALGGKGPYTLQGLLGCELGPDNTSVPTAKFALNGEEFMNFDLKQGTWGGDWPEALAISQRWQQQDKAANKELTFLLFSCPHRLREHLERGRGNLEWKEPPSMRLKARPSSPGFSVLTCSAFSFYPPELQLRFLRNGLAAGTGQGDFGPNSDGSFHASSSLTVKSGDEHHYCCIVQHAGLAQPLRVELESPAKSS
T1 sequence (P61769 21-119, chain 2 of 2): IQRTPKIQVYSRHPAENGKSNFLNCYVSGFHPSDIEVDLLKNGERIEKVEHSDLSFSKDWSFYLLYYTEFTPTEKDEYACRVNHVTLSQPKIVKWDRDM

Binder	Ratio/Fc-H (FcRn-p3 fusion protein [1])	Ratio/FWT (FcRn-p3 fusion protein [2])
C8A_61 (other, EU numbering) CPPCTAPELLGGPSVFLFPPKPKDTLMISRTPEVTCVVEDVSHEDPEVKFNWYVDGVEVHNAKTKPREEQYNSTYRVVSVLTVLHQDWLNGKEYKCKVSNKALPAPIEKTISKAKGQPREPQVYTLPPSRDELTKNQVSLTCLVKGFYPSDIAVEWESNGQPENNYKTTPLVLDSDGSFFLYSKLTVDKSRWQQGNVFSCSVMHEALHYHYTQKSLSLSPGK	1.7 fold	5.5 fold
M3A_06 (other, EU numbering) CPPCPAPELLGGPSVLLFPPKPKDTLMISRTPEVTCVVEDVSHEDPEVKFNWYVDGVEVHNAKTKPREEQYNSTYRVVSVLTVLHQDWLNGKEYKCKVSNKALPAPIEKTISKAKGQPREPQVYTLPPSRDELTKNQVSLTCLVKGFYPSDITVEWESNGQPENNYKTTPPMLDSDGSFFLYSKLTVDKSRWQQGNVFSCSVMHEALHNHYTQKSLSLSPGK	1.8 fold	5.7 fold
M3A_08 (other, EU numbering) CPPCPAPELLGGPSVFLFPPKPKDTLMISRTPEVTCVVEDVSHEDPEVKFNWYVDGVEVHNAKTKPREEQYNSTYRVVSVLPVLHQDWLNGKEYKCKVSNKALPAPIEKTISKAKGQPREPQVYTLPPSRDELTKNQVSLTCLVKGFYPSDITVEWESNGQPENNYKTTPPMLDSDGSFFLYSKLTVDKSRWQQGNVFSCSVMHEALHNHYTQKSLSLSPGK	1.7 fold	5.6 fold
M3A_12 (other, EU numbering) CPPCPAPELLGGPSVFLFPPKPKDTLMISRTPEVTCVVVDVSHEDPEVKFNWYVDGVEVHNAKTKPREEQYNSTYRVVSVLTVLHQDWLDGKEYKCKVSNKALPAPIEKTISKAKGQPREPQVYTLPPSRDELTKNRVSLTCLVKGFYPSDIAVEWESNGQPENNYKTTPPVLDSDGSFFLYSKLTVDKSRWQQGDVFSCSVMHEALHSHYTQKSLSLSPGK	1.1 fold	3.4 fold
M3A_18 (other, EU numbering) CPPCPAPELLGGPSVFLFPPKPKDTLMISRTPEVTCVVVDVSHEDPEVKFNWYVDGVEVHNAKTKPREEQYNSTYRVVSVLPVLHQDWLNGKEYKCKVSNKALPAPIEKTISKAKGQPREPQVYTLPPSRDELTKNQVSLTCLVKGFYPSDIVVEWESNGQPENNYKTTPPVLDSDGSFFLYSKLTVDKSRWQQGTVFSCSVMHEALHNHYTQKSLSLSPGK	1.9 fold	6.2 fold
M3A_21 (other, EU numbering) CPPCPAPELLGGPSVLLFPPKPKDTLMISRTPEVTCVVEDVSHEDPEVKFNWYVDGVEVHNAKTKPREEQYNSTYRVVSVLPVLHQDWLNGKEYKCKVSNKALPAPIEKTISKAKGQPREPQVYTLPPSRDELTKNQVSLTCLVKGFYPSDIVVEWESNGQPENNYKTTPPVLDSDGSFFLYSKLTVDKSRWQQGTVFSCSVMHEALHNHYTQKSLSLSPGK	2.6 fold	8.4 fold
M3A_26 (other, EU numbering) CPPCPAPELLGGPSVFLFPPKPKDTLMISRTPEVTCVVEDVSHEDPEVKFNWYVDGVEVHNAKTKPREEQYNSTYRVVSVLPVLHQDWLNGKEYKCKVSNKALPAPIEKTISKAEGRPREPQVYTLPPSRDELTKNQVSLTCLVKGFYPSDIVVEWESNGQPENNYKTTPPVLDSDGSFFLYSKLTVDKSRWQQGNVFSCSVMHEALHNHYTQKSLSLSPGK	1.8 fold	5.6 fold
M3A_34 (other, EU numbering) CPPCPAPELLGGPSVFLFPPKPKDTLMISRTPEVTCVVVDVNHEDPEVKFNWYVDGVEVHNAKTKPREEQYNSTYRVVSVLNVLHQDWLNGKEYKCKVSNKALPAPIEKTISKAKGQPREPQVYTLPPSRDELTKNQVSLTCLVRGFYPSDIVVEWESNGQPENNYKTTPPVLDSDGSFFLYSKLTVDKSRWQQGNVFSCSVMHEALHNHYTQKSLSLSPGK	1.3 fold	4.3 fold
M3A_35 (other, EU numbering) CPPCPAPELLGGPSVFLFPPKPKDTLMISRTPEVTCVVEDVSHEDPEVKFNWYVDGVEVHNAKTKPREEQYNSTYRVVSVLTVLHQDWLDGKEYKCKVSNKALPAPIEKTISKAKGQPREPQVYTLPPSRDELTKNQVSLTCLVKGFYPSDIAVEWESNGQPENNYKTTPLVLDSDGSFFLYSKLTVDKSRWQQGNVFSCSVMHEALHNHYTQKSLSLSPGK	1.1 fold	3.7 fold
M3B_04 (other, EU numbering) CPPCPAPELLGGPSVLLFPPKPKDTLMISRTPEVTCVVEDVSHEDPEVKFNWYVDGVEVHNAKTKPREEQYNSTYRVVSVLTVLHQDWLNGKEYKCKVSNKALPAPIEKTISKAKGRPREPQVYTLPPSRDELTKNQVSLTCLVKGFYPSDIVVEWESNGQPENNYKTTPPVLDSDGSFFLYSKLTVDKSRWQQGNVFSCSVMHEALHNHYTQKSLSLSPGK	1.7 fold	5.5 fold
M3B_23 (other, EU numbering) CPPCPAPELLGGPSVLLFPPKPKDTLMISRTPEVTCVVEDVSHEDPEVKFNWYVDGVEVHNAKTKPREEQYNSTYRVVSVLPVLHQDWLNGKEYKCKVSNKALPAPIEKTISKAKGQPREPQVYTLPPSRDELTKNQVSLTCLVKGFYPSDIAVEWESNGQPENNYKTTPPVLDSDGSFFLYSKLTVDKSRWQQGNVFSCSVMHEALHNHYTQKSLSLSPGK	1.2 fold	3.8 fold
T3A_01 (other, EU numbering) CPPCPAPELLGGPSVFLFPPKPKDTLMISRTPEVTCVVEDVSHEDPEVKFNWYVDGVEVHNAKTKPREEQYNSTYRVVSVLPVLHQDWLNGKEYKCKVSNKALPAPIEKTISKAKGQPREPQVYTLPPSRDELTKNQVSLTCLVKGFYPSDIVVEWESNGQPENNYKTTPPVLDSDGSFFLYSKLTVDKSRWQQGTVFSCSVMHEALHNHYTQKSLSLSPGK	2.4 fold	7.8 fold
T3A_08 (other, EU numbering) CPPCPAPELLGGPSVFLFPPKPKDTLMISRTPEVTCVVEDVSHEDPEVKFNWYVDGVEVHNAKTKPREEQYNSTYRVVSVLTVLHQDWLNGKEYKCKVSNKALPAPIEKTISKAKGQPREPQVYTLPPSRDELTKNQVSLTCLVKGFYPSDIVVEWESNGQPENNYKTTPPVLDSDGSLFLYSKLTVDKSRWQQGNVFSCSVMHEALHNHYTQKSLSLSPGK	1.1 fold	3.5 fold
T3A_10 (other, EU numbering) CPPCPAPELLGGPSVFLFPPKPKDTLMISRTPEVTCVVVDVSHEDPEVKFNWYVDGVEVHNAKTKPREEQYNSTYRVVSVLTVLHQDWLDGKEYKCKVSNKALPVPIEKTISKAKGQPREPQVYTLPPSRDELTKNQVSLTCLVKGFYPSDIAVEWESNGQPEKNYKTTPPVLDSDGSFFLYSKLTVDKSRWQQGNVFSCSVMHEALHYHYTQKSLSLSPGK	2.4 fold	7.8 fold
T3A_11 (other, EU numbering) CPPCPAPELLGGPSVFLFPPKPKDTLMISRTPEVTCVVVDVSHEDPEVKFNWYVDGVEVHNAKTKSREEQYNSTYRVVSVLTVLHQDWLDGKEYKCKVSNKVLPVPIEKTISKAKGQPREPQVYTLPPSRDELTKNQVSLTCLVKGFYPSDIAVEWESNGQPENNYKTTPPVLDSDGSFFLYSKLTVDKSRWQQGNVFSCSVMHEALHYHYTQKSLSLSPGK	1.3 fold	4 fold
T3A_13 (other, EU numbering) CPPCPAPELLGGPSVFLFPPKPKDTLMISRTPEVTCVVVDVSHEDPEVKFNWYVDGVEVHNAKTKPREEQYNSTYRVVSVLTVLHQDWLDGKEYKCKVSNKALPAPIEKTISKAKGQPREPQVYTLPPSRDELTKNQVSLTCLAKGFYPSDIAVEWESNGQPENNYKTTPPVLDSDGSFFLYSKLTVDKSRWQQGNVFSCSVMHEALHYHYTQKSLSLSPGK	1.8 fold	5.6 fold
T3A_15 (other, EU numbering) CPPCPAPELLGGPSVFLFPPKPKDTLMISRTPEVTCVVEDVSHEDPEVKFNWYVDGVEVHNAKTKPREEQYNSTYRVVSVLTVLHQDWLNGKEYKCKVSNKALPAPIEKTISKAKGQPREPQVYTLPPSRDELTKNQVSLTCLVKGFYPSDIVVEWESNGQPENNYKTAPPVLDSDGSLFLYSKLTVDKSRWQQGNVFSCSVMHEALHSHYTQKSLSLSPGK	2.8 fold	8.9 fold
T3A_16 (other, EU numbering) CPPCPAPELLGGPSVLLFPPKPKDTLMISRTPEVTCVVEDVSHEDPEVKFNWYVDGVEVHNAKTKPREEQYNSTYRVVSVLPVLHQDWLNGKEYKCKVSNKALPAPIEKTISKAKGQPREPQVYTLPPSRDELTKNQVSLTCLVKGFYPSDIVVEWESNGQPENNYKTTPPVLDSDGSFFLYSKLTVDKSRWQQGNVFSCSVMHEALHNHYTQKSLSLSPGK	2.3 fold	7.4 fold
T3A_22 (other, EU numbering) CPPCPAPELLGGPSVLLFPPKPKDTLMISRTPEVTCVVEDVSHEDPEVKFNWYVDGVEVHNAKTKPREEQYNSTYRVVSVLTVLHQDWLNGKEYKCKVSNKALPAPIEKTISKAKGQPREPQVYTLPPSRDELTKNQVSLTCLVKGFYPSDIVVEWESNGQPENNYKTTPPVLDSDGSFFLYSKLTVDKSRWQQGNVFSCSVMHEALHSHYTQKSLSLSPGK	3.8 fold	12.2 fold
T3A_30 (other, EU numbering) CPPCPAPELLGGPSVFLFPPKPKDTLMISRTPEVTCVVEDVSHEDPEVKFNWYVDGVEVHNAKTKPREEQYNSTYRVVSVLTVLHQDWLNGKEYKCKVSNKALPAPIEKTISKAKGQPREPQVYTLPPSRDELTKNQVSLTCLVKGFYPSDIVVEWESNGQPENNYKTTPPVLDSDGSFFLYSKLTVDKSRWQQGNAFSCSVMHEALHNHYTQKSLSLSPGK	1.1 fold	3.4 fold
T3A_34 (other, EU numbering) CPPCPAPELLGGPSVFLFPPKPKDTLMISRTPEVTCVVEDVSHEDPEVKFNWYVDGVEVHNAKTKPREEQYNSTYRVVSVLTVLHQDWLNGKEYKCKVSNKALPAPIEKTISKAKGQPREPQVYTLSPSRDELTKNQVSLTCLVKGFYPSDIVVEWESNGQPENNYKTTPPVLDSDGSFFLYSKLTVDKSRWQQGNVFSCSVMHEALHNHYTQKSLSLSPGK	1.4 fold	4.6 fold
